# Experimental data taken from paper PMC8646926 (Advanced Biology, 2021).
# Where two headings read alike, the source gives them in different places.
# B1: 2INS69 (VHH)
# VHH: QVQLQESGGGLVRAGDSLRLSCAVSGRTFSSVAMGWFRQAPGKEREFVAFISGSTGSVTYYADSVKGRFAISRDNAKNTVYLQMNSLKPEDTAVYDCAAKFTGTFNYQGLYDYWGQGTQVTVSS
# B2: 2INS45 (VHH)
# VHH: QVQLQESGGGLVQAGGSLRLSCAASGFTLSSNDMGWYRQAPGKQRELVATITSGLSTNYADSVKGRFTISRDNAKNTVFLQMNSLKIEDTAVYYCEVERGWGPPRDYWGHGTQVTVSS
# B3: 2INS64 (VHH)
# VHH: QVQLQESGGGLVQVGGSLRLSCAASGSILSINAMGWYRQAPGKQRELVAAITSGGSTNYADSVKGRFTISRDNAKNMLYLQMNSLKPEDTAVYYCHVVTGWGPLDWGQGTQVTVSS
# B4: 3NSP52 (VHH)
# VHH: QVQLQESGGGLVQPEGSLRLSCAASGLTFDSYAIGWFRQAPGKEREFVAASIWSGDSGHYTGSVKGRFTISRDNAKNTVDLQMNSLKPEDTAVYYCAASASFLHSANYHMRAKWGYWGQGTQVTVSS
# B5: 3NSP78 (VHH)
# VHH: QVQLQESGGGLVQAGGSLRLSCAASGRAFSSYVMGWFRQAPGKEREFVAAIHWTGAATVYVDSVKGRFAISRHNAKNTVYLEMNSLKPEDTAVYYCAADPSGSYWPPKRYDYWGQGTQVTVSS
# B6: 2INS27 (VHH)
# VHH: QVQLQESGGGLVQAGGSLRLSCATSGSIFSSAVMGWYRQAPGNERELVALIGSSDTTDYSNSVKGRFTISRDNAKNTAYLRMNSLKPEDTAVYYCTAVKYGLGGFVYWGQGTQVTVSS
# B7: nanobody 2NSP90 (VHH)
# VHH: QVQLQESGGGLVQTGDSLRLSCAVSGRTFSTYSVGWFRQAPGKEREFVALRWSGGTTYYADSVVGRFTVSRDNAKNTVYLEMNSLKPEDTAVYYCAADRGSGSYSPTYRWDYWGQGTQVTVSS
# B8: nanobody 2NSP23 (VHH)
# VHH: QVQLQESGGGLVQPGGSLRLSCAASGLAFSMYTMGWFRQAPGKEREFVAMIISSGDSTDYADSVKGRFTISRDNGKNTVYLQMDSLKPEDTAVYYCAAPKFRYYFSTSPGDFDSWGQGTQVTVSS
# Columns and labels:
# [1] = biological target: T1, SARS-CoV-2 Nsp9, wild type, purified recombinant (SARS-CoV-2, UniProt P0DTD1)
# [2] = biological target: T1, SARS-CoV-2 Nsp9, wild type, purified …; test: NMR titration; conditions: both partners purified
# [3] = biological target: T1, SARS-CoV-2 Nsp9, wild type, purified …; test: far-Western, overlay or dot blot; conditions: both partners purified
Binder,binding result [1],further results
B1,binds,–
B2,binds,–
B3,binds,–
B4,binds,–
B5,binds,–
B6,binds,–
B7,–,stoichiometry N [2]: 3 to 4
B8,–,binding result [3]: binds
